This data set deals with the molecule itself. Briefly: SEC; oligomeric state of the protein produced alone, as assessed by size exclusion chromatography.

B1: Escherichia coli TadA (enzyme, E. coli, UniProt P68398 1-167, looked up)
chain: MSEVEFSHEYWMRHALTLAKRAWDEREVPVGAVLVHNNRVIGEGWNRPIGRHDPTAHAEIMALRQGGLVMQNYRLIDATLYVTLEPCVMCAGAMIHSRIGRVVFGARDAKTGAAGSLMDVLHHPGMNHRVEITEGILADECAALLSDFFRMRRQEIKAQKKAQSSTD
notes: tRNA-specific adenosine deaminase TadA, Escherichia coli; also called E. coli TadA; source: produced and purified using the same protocol as for the ADAT complex (E. coli BL21(DE3); Talon, 3C protease, HiTrap Q, Superdex 200)
As for B1, the “stoichiometry N” value amounted to 2.

B2: mouse ADAT2 (enzyme, UniProt Q6P6J0 1-191, looked up)
chain: MEEKVESTTTPDGPCVVSVQETEKWMEEAMRMAKEALENIEVPVGCLMVYNNEVVGKGRNEVNQTKNATRHAEMVAIDQVLDWCHQHGQSPSTVFEHTVLYVTVEPCIMCAAALRLMKIPLVVYGCQNERFGGCGSVLNIASADLPNTGRPFQCIPGYRAEEAVELLKTFYKQENPNAPKSKVRKKDCQKS
notes: tRNA-specific adenosine deaminase 2 (ADAT2), mouse, full-length gene amplified from E16.5 cortices, NCBI NM_025748.4; cloned in pnCS, which codes for no fusion tag; residues 11-176 seen in the electron density; the untagged pnCS construct is told only for the co-expression; also called A2; ADAT2/ADAT2 (homodimer, when produced alone); source: E. coli BL21(DE3), co-expressed with ADAT3, purified …
Regarding B2, the “stoichiometry N” value stood at 2.

The values above are taken from PMC8216470, “The structure of the mouse ADAT2/ADAT3 complex reveals the molecular basis for mammalian tRNA wobble adenosine-to-inosine deamination” (Nucleic Acids Research, 2021).
